From article PMC7868722

B1: 3G (structured_DNA)
DNA: GGTTGGTGTGGTTGG
modifications: T3: N3-propargyl-dT clicked to 1-beta-D-glucopyranosyl azide (printed glycopyranosyl)
B2: 12G (structured_DNA)
DNA: GGTTGGTGTGGTTGG
modifications: T12: N3-propargyl-dT clicked to 1-beta-D-glucopyranosyl azide (printed glycopyranosyl)

The binders below were run against human alpha-thrombin (plasma) (Homo sapiens, UniProt P00734;P00734 328-363;364-622) (assay: MST).
In the case of GGTTGGTGTGGTTGG (structured_DNA, T3: N3-carboxymethyl-dT amide with L-phenylalanine) [3Phe], the Kd is reported as 22.6 ± 4.8 nM. GGTTGGTGTGGTTGG (structured_DNA, T12: N3-carboxymethyl-dT amide with L-serine) [12Ser] gave a Kd of 86.6 ± 4.5 nM. Work on GGTTGGTGTGGTTGG (structured_DNA, T3: N3-carboxymethyl-dT amide with L-serine) [3Ser] yielded a Kd of 14.6 ± 0.3 nM. In the case of GGTTGGTGTGGTTGG (structured_DNA, T3: N3-carboxymethyl-dT amide) [3Amide], the Kd is reported as 29.2 ± 0.4 nM. In the case of GGTTGGTGTGGTTGG (structured_DNA, T12: N3-carboxymethyl-dT amide) [12Amide], the Kd is reported as 30.6 ± 6.1 nM. GGTTGGTGTGGTTGG (structured_DNA, T12: N3-carboxymethyl-dT amide with L-alanine) [12Ala] gave a Kd of 51 ± 3.8 nM. For GGTTGGTGTGGTTGG (structured_DNA, T3: N3-carboxymethyl-dT amide with L-alanine) [3Ala], the Kd was 21.4 ± 2.8 nM. Binder GGTTGGTGTGGTTGG (structured_DNA, T3: N3-aminoalkyl-dT nicotinoyl amide) [3Nic] has a Kd of 27.1 ± 4.2 nM. B1 gave a Kd of 9.8 ± 0.6 nM. For GGTTGGTGTGGTTGG (structured_DNA, T3: N3-carboxymethyl-dT amide with L-leucine) [3Leu], the Kd was 10.9 ± 0.2 nM. Binder GGTTGGTGTGGTTGG (structured_DNA, T12: N3-propargyl-dT clicked to 1-beta-D-lactopyranosyl azide) [12L] has a Kd of 27.2 ± 3 nM. In the case of GGTTGGTGTGGTTGG (structured_DNA) [TBA (HD1)], the Kd is reported as 20.2 ± 1.3 nM. GGTTGGTGTGGTTGG (structured_DNA, T3: N3-propargyl-dT clicked to 1-beta-D-lactopyranosyl azide) [3L] showed a Kd of 11.6 ± 0.5 nM. GGTTGGTGTGGTTGG (structured_DNA, T3: N3-aminoalkyl-dT benzoyl amide) [3Bz] showed a Kd of 30 ± 6.6 nM. For GGTTGGTGTGGTTGG (structured_DNA, T12: N3-carboxymethyl-dT amide with L-phenylalanine) [12Phe], the Kd was 99.1 ± 6.3 nM. With GGTTGGTGTGGTTGG (structured_DNA, T12: N3-carboxymethyl-dT amide with L-tryptophan) [12Trp] the Kd was 67.3 ± 12.1 nM. With GGTTGGTGTGGTTGG (structured_DNA, T12: N3-carboxymethyl-dT amide with L-leucine) [12Leu] the Kd was 72.2 ± 0.9 nM. GGTTGGTGTGGTTGG (structured_DNA, T3: N3-aminoalkyl-dT p-nitrobenzoyl amide) [3NB] was tested, and the Kd was 164 ± 3.5 nM. B2 was tested, and the Kd was 20.7 ± 2.8 nM.
